The text below walks through data of PMC8568140, “Assembly of infectious Kaposi’s sarcoma-associated herpesvirus progeny requires formation of a pORF19 pentamer” (PLoS Biology, 2021).

The target of data set [1] is Baculovirus-produced KSHV capsids lacking the portal protein pORF43, Q2HRA7;Q2HRB6. The data set is described as follows: western blot of gradient-purified capsids (capsid assembly assay in insect cells), band intensity quantified. The note with it: 3 independent biological replicates; capsid loading normalized to pORF25-V5 and pORF26; parent: est. 100; read off a plot. On the technique in general: A western blot detects proteins with antibodies after separation by electrophoresis.

Data set [2] deals with the molecule itself. Briefly: crystal structure; hanging drop, 18°C, 0.1 M HEPES pH 7.5, 1.69 M lithium acetate (native, P212121, 2.6 Å); selenomethionine derivative in 0.1 M MES pH 7.4, 2 M lithium acetate (P21, P6322).
Data set [3] concerns the molecule itself. The data set is described as follows: AUC; sedimentation velocity, 40,000 rpm, 20°C, LiAc buffer with 50 mM HEPES pH 7.5 and 0.5 M lithium acetate; interface mutants at 127 μM, oxidized pORF19_(KCTD)CC at 11 μM.

Where a chain is given by its changes, count along the chain named. Numbers in names are those of the source.

For “GFP-tagged wt pORF19 (ORF19-GFP) of KSHV D173A; Q177A”, in data set [1], the percent of parent (% of wt pORF19) was found to be 93.
Same read-out and setting: next, “GFP-tagged wt pORF19 (ORF19-GFP) of KSHV V463W; L465Y”: 91; “GFP-tagged wt pORF19 (ORF19-GFP) of KSHV loop (156MNQNQ160 replaced by a flexible linker)”: 92.

B1: KSHV pORF19 carboxyl-terminal domain (pORF19_(KCTD)) (domain or fragment)
chain: ASHRNFTVAIVPGDPHFSVDRDLRGELMPTLYMNQNQWLPSFGPWFISLTDNAMQRRVFPKELKGTVNFQNSTSLKLISHTLTTVASTTADFFADARHLTDTQAALCLVNAYFCQKTSRQLPATPDDLLADLPQKLDLLITQLKQESGPGDFSFTYSNPQERASLAPLNKESRYPTAFFQRHKLHAMMAKAGLFPHNKGTGAPGTAPAMDLVFAITSAMFGSDIPPFSAYQWNLRAGIVALEVFILAYGLLEFGQVARGHPNRRLNLVSLLGPKFQPGALPDPNAPMLKRGQLFSFISEHYIIPTLQANPNAPVSFIFPGIILAALEARSTVSHKQPGPFVNLTGSRFNEIFEILNQQLTFRDPLALLQARTALRLATEEGLDVLLSHPSPPTLLQEIIKSQFGGGDDYDRAYFMVLGCLPVVLAVV
notes: The His tag was removed with carboxypeptidase after a first SEC; Two of the three crystal forms (P21, P6322) were of a selenomethionine derivative; also called wt pORF19_(KCTD); KSHV pORF19 CTD; source: E. coli Rosetta (DE3), purified (HisTrap, SEC); not shown: His tag, C-terminal, cleaved
One may read the stoichiometry N as the number of molecules, sites or subunits per partner or assembly. With B1, the “stoichiometry N” value in data set [2] was 5.

B2: oxidized pORF19_(KCTD)CC (KSHV pORF19 CTD with P137C and P461C) (domain or fragment)
chain: B1 chain with P15C, P339C
modifications: engineered inter-protomeric disulfide bond between the cysteines introduced at 137 and 461 (oxidized form)
notes: pORF19 of Kaposi's sarcoma-associated herpesvirus, residues 123 to 549, with two prolines changed to cysteines; The protomers of the oxidized form are covalently linked by the engineered disulfide bond; also called pentameric pORF19KCTDCC; source: E. coli Rosetta (DE3), purified as pORF19_(KCTD); oxidized with 2 mM GSSG in 0.5 M lithium acetate, then SEC (Superose 6 Increase); not shown: His tag, …
Consider B2, for which, in data set [3], the “stoichiometry N” value amounted to 5.
